According to patent US20210147519A1 (Regeneron, published 2021):

Legend:
[1] = molecular target: T1, Recombinant bacterial IsdB expressed with a hexahistidine tag (IsdB-6xHis; REGN2655) (Staphylococcus aureus, UniProt A6QG30 42-613); experiment: SPR Biacore, captured Ab, IsdB-6xHis analyte, 25C
[2] = molecular target: T2, native human complement component C1q protein purified from human serum (Quidel) (human, UniProt P02745 23-245; P02746 28-253; P02747 29-245); experiment: SPR Biacore, captured Ab, hC1q analyte, 25C; 25 C; hC1q binding to the C1q arm of the bispecific antibody
T2 construct: the protein assayed was bought native serum C1q (Quidel); no signal peptide limits are stated; also called hC1q; human C1q
T2 sequence (P02745 23-245 limits assumed, chain 1 of 3): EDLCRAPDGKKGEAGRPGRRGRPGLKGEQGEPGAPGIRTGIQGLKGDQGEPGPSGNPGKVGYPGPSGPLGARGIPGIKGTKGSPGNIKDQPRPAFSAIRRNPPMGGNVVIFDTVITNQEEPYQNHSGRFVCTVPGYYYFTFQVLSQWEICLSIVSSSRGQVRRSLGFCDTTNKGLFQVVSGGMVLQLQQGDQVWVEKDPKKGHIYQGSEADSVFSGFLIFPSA
T2 sequence (P02746 28-253 limits assumed, chain 2 of 3): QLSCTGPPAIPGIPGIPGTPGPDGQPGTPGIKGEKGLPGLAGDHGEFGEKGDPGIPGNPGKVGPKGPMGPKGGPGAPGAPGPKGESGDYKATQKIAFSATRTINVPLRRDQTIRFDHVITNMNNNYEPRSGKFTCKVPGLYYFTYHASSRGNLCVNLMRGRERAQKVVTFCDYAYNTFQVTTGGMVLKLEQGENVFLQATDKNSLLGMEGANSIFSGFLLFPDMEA
T2 sequence (P02747 29-245 limits assumed, chain 3 of 3): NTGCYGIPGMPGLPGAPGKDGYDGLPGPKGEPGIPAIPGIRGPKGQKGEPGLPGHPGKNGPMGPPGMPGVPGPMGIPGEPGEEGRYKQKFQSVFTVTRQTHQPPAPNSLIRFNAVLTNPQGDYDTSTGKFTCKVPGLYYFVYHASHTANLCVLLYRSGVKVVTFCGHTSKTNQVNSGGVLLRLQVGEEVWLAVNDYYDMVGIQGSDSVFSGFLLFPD

[3] = molecular target: T2, native human complement component C1q …; experiment: SPR Biacore, captured Ab, hC1q analyte, 37C; 37 C; hC1q binding to the C1q arm of the bispecific antibody
[4] = molecular target: T2, native human complement component C1q …; experiment: cell-based or functional assay
[5] = molecular target: T2, native human complement component C1q …; experiment: SPR Biacore, captured Ab, hC1q analyte, 25C
[6] = molecular target: T2, native human complement component C1q …; experiment: cell-based or functional assay; remark: listed apart in the source
[7] = molecular target: T3, IsdB expressed on the surface of S. aureus Wood 46 (Staphylococcus aureus); experiment: ELISA on plate-coated S. aureus Wood 46
T3 construct: whole, on cells
T3 sequence (Q2FZF0 41-613): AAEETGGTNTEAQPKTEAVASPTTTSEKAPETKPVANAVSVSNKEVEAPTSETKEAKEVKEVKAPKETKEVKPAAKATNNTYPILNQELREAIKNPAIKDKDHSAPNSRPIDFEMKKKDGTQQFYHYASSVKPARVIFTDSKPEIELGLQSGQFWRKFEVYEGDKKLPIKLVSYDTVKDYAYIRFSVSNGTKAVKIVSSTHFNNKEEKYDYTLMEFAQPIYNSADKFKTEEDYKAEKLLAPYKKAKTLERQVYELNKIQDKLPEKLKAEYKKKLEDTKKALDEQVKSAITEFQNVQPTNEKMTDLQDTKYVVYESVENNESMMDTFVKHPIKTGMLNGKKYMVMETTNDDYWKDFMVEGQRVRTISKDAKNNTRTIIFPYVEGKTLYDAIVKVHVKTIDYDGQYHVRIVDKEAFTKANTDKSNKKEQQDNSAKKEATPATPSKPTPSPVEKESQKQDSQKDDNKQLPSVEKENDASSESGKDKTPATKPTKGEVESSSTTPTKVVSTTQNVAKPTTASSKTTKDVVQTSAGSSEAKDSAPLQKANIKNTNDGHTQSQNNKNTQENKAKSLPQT
Description: Briefly, S. aureus Wood 46 was grown in RPMI overnight, washed in PBS and adjusted to an OD₆₀₀ of 0.25. MaxiSorp 96 well microtiter plates were coated overnight with 100 μl of S. aureus culture per well. Plates were washed and blocked with 3% BSA. […] Anti-human HRP conjugated secondary antibody was added to washed plates. Luminescence reagents (SuperSignal Pico) were then added to the wells and signal was detected in a plate reader (Victor X3 plate reader, Perkin Elmer) immediately. Luminescence values were analyzed by a four-parameter logistic equation over a 7-point response curve (GraphPad Prism) to determine the binding EC₅₀, of the antibodies.

[8] = molecular target: T1, Recombinant bacterial IsdB expressed …; experiment: SPR Biacore, captured Ab, IsdB-6xHis analyte, 37C
[9] = molecular target: T2, native human complement component C1q …; experiment: cell-based or functional assay; remark: listed apart in the source
[10] = molecular target: T2, native human complement component C1q …; experiment: SPR Biacore, captured Ab, hC1q analyte, 37C
[11] = molecular target: T2, native human complement component C1q …; experiment: competition ELISA, 30 pM biot-hC1q, competitor plate-coated hIgG3-k
[12] = molecular target: T2, native human complement component C1q …; experiment: competition ELISA, 30 pM biot-hC1q, competitor plate-coated hIgG1-k
[13] = molecular target: T2, native human complement component C1q …; experiment: competition ELISA, 6 nM biot-hC1q, competitor plate-coated hIgG2-k
[14] = molecular target: T2, native human complement component C1q …; experiment: competition ELISA, 6 nM biot-hC1q, competitor plate-coated hIgM

T1 sequence (A6QG30 42-613, tags left off): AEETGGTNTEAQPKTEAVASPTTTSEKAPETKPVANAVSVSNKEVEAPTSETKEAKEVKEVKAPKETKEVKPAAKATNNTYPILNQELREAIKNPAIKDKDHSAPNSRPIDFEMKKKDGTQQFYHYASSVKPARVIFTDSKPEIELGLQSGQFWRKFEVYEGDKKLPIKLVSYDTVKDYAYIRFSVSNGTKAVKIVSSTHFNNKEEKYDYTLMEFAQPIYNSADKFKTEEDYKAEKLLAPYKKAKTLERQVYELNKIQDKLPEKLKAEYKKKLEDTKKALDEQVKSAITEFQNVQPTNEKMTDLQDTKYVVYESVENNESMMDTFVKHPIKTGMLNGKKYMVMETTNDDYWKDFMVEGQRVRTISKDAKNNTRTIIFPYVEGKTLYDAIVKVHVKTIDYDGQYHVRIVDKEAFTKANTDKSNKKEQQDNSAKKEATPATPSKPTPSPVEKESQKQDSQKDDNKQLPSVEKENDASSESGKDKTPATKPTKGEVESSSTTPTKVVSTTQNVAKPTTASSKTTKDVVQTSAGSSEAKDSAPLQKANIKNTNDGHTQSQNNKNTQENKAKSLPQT

| Binder | Kd [1] [nM] | t½ [1] [min] | Kd [2] [nM] | Kd [3] [nM] | Classical Pathway hemolysis assay % inhibition [4] [%] | Classical Pathway hemolysis assay IC50 [4] [nM] | t½ [5] [min] | inhibition of CDC of Daudi cells, IC50 [M] [6] [M] | inhibition of CDC of Daudi cells, Max % Inhibition [6] [%] | EC50 [7] [nM] | Kd [8] [nM] | t1/2 [8] [min] | C1q deposition on S. aureus Cowan I EC50 [9] [nM] | t1/2 [10] [min] | koff [1] [s⁻¹] | kon [1] [M⁻¹ s⁻¹] | % Blockade with 30 nM bispecific Ab [11] [%] | % Blockade with 30 nM bispecific Ab [12] [%] | koff [5] [s⁻¹] | kon [5] [M⁻¹ s⁻¹] | other results |
| --- | --- | --- | --- | --- | --- | --- | --- | --- | --- | --- | --- | --- | --- | --- | --- | --- | --- | --- | --- | --- | --- |
| H1H20631D (bispecific antibody, V domains shown, H1H = human IgG1 Fc; also called anti-IsdB x anti-C1q bispecific antibody) VH 1: EVQLVESGGGLVQPGRSLRLSCTTSGFTFDDYAMHWVRQVPGQGLEWVAGLSWNSDTIGYADSVKGRFTISRDNAKNSLYLQMKSLKAEDTALYYCTKDFYHSLNNWNYYYFDYWGQGTLVTVSS VH 2: EVQLVESGGGVVQPGGSLRLSCAASGFSLDDYAMHWVRQTPGKGLEWVSLISGDGSRTSYADSVKGRFTISRDNSKNSLYLKMNSLRTEDTALYYCTKDPHNSNWFDPWGQGTLVTVSS VL: not shown | 2.36 | 42.8 | 0.228 | 0.193 | 100 | 2.67 | 7.01 | > 1e-07 | 94 | 1.26 | 3.43 | 20.7 | 0.297 | 5.19 | – | – | – | – | – | – | – |
| H1H20635D (bispecific antibody, V domains shown, also called anti-IsdB x anti-C1q bispecific antibody) VH 1: EVQLVESGGGLVQPGRSLRLSCTTSGFTFDDYAMHWVRQVPGQGLEWVAGLSWNSDTIGYADSVKGRFTISRDNAKNSLYLQMKSLKAEDTALYYCTKDFYHSLNNWNYYYFDYWGQGTLVTVSS VH 2: EVQLVQSGAEVKKPGESLKIFCKGSGYSFINDWIGWVRQMPGKGLEWMGLIFPGDSDTRYSPVFQGHVTISADQSIDTAYLQWNSLKASDTAIYYCAVLRYWHFAIWGRGTLVTVSS VL: not shown | 1.7 | 56.6 | 0.309 | 0.723 | 97 | 8.88 | 2.56 | 2.8e-08 | ≥ 99 | 1.96 | 3.33 | 22.2 | 0.425 | 0.66 | 0.000204 | 120000 | 53 | 87 | 0.00452 | 1.46e+07 | % Blockade with 600 nM bispecific Ab [13]: 84%; IC50 [13]: 16 nM; % Blockade with 600 nM bispecific Ab [14]: 93%; IC50 [14]: 12 nM; koff [8]: 0.00052 s⁻¹; kon [8]: 156000 M⁻¹ s⁻¹; koff [10]: 0.0174 s⁻¹; kon [10]: 2.41e+07 M⁻¹ s⁻¹ |
| H1H20633D (bispecific antibody, V domains shown, also called anti-IsdB x anti-C1q bispecific antibody) VH 1: EVQLVESGGGLVQPGRSLRLSCTTSGFTFDDYAMHWVRQVPGQGLEWVAGLSWNSDTIGYADSVKGRFTISRDNAKNSLYLQMKSLKAEDTALYYCTKDFYHSLNNWNYYYFDYWGQGTLVTVSS VH 2: EVQLVQSGAEVKKPGESLKISCKASGYNFNSYWIGWVRQMPGKGLEWMGIVFPGDSDTRYSPSFQGQVTISADESINTAYLQWSSLKASDTAVYYCARHTRWYLDYWGQGTLVTVSS VL: not shown | 2.04 | 46.9 | – | – | 100 | 1.42 | 3.32 | 1.7e-08 | ≥ 99 | 1.31 | 3.41 | 21.4 | 0.203 | 0.91 | 0.000247 | 121000 | 84 | 93 | 0.00348 | 1.28e+07 | IC50 [11]: 4.8 nM; IC50 [12]: 1.6 nM; Kd [5]: 0.271 nM; % Blockade with 600 nM bispecific Ab [13]: 79%; IC50 [13]: 8.2 nM; % Blockade with 600 nM bispecific Ab [14]: 96%; IC50 [14]: 6.4 nM; koff [8]: 0.00054 s⁻¹; kon [8]: 159000 M⁻¹ s⁻¹; Kd [10]: 0.487 nM; koff [10]: 0.0127 s⁻¹; kon [10]: 2.61e+07 M⁻¹ s⁻¹ |
